Earlier results on three compounds are cited in US9205345B2, “Spray-drying apparatus and methods of using the same” (Bend Research, Inc., priority 2010, dated 2015).

One may read the Log P as a log measure of how a compound divides between an organic and an aqueous phase. As a reminder, the pKa is the pH at which an ionisable group is half protonated.

Experiment in data set [1]: not given
This is another data set of the same source.

Experiment in data set [2]: not given
The source holds these as a separate data set.

`CC(C)(C)NCC(O)c1ccc(O)c(CO)c1` (centres unmarked) [Active Agent 1, 4-[2-(tert-butylamino)-1-hydroxyethyl]-2-(hydroxymethyl)phenol, reference compound]: the log partition coefficient (Log P) is 0.11. The solubility in water entry in data set [1] is “freely soluble in water”.

On to Peptide YY (PYY) [Active Agent 3], for which the solubility in water result in data set [1] is given as “soluble in water”.

For the compound insulin [Active Agent 2], the “Log P” value was 0.22. Further, the pKa in data set [2] was 5.39.
